The nature of series [1]: folding stability dG unfold from trypsin proteolysis; higher = more stable. The procedure, abridged:
(§1)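 Only designs with AlphaFold2 dimer inter-PAE above 15 were retained; each was a mini-protein under 80 residues with no cysteine, in a PA-tagged cDNA display construct. After digestion with trypsin and chymotrypsin and sequencing, K50 was inferred by Bayesian fitting of counts, and unfolding free energy was derived per protease or combined against a sequence-predicted unfolded-state K50 and a shared folded-state K50.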

Series [2] in a line: folding stability dG unfold from chymotrypsin proteolysis; higher = more stable. The procedure, abridged:
as §1

Series [3] can be described thus: folding stability dG unfold (combined trypsin and chymotrypsin); higher = more stable. The procedure, abridged:
as §1

± gives the half width of the 95% confidence interval.

For “SAGGMTFSGVTREQALAIAKALEEEGYVLERVEVVEFPEDGTVRALVVVRDPETDEPLAEIELDIKPSAGGS [r16_750_TrMRF]”, the entries for the “folding stability dG unfold” value in series [1], in series [2] and in series [3] were 1.53 ± 0.017 kcal/mol, 1.81 ± 0.036 kcal/mol and 1.7 ± 0.055 kcal/mol, respectively.
The like results for “SAGGMTIEKEDGKYRITITINGKTYTFTIPKELENKTEEEIAAELAAELAEKFGLKEITEIKIEKVPSAGGS [r8_402_TrROS_Hall]” were, in that order, 2.38 ± 0.096 kcal/mol, 3.559 ± 0.025 kcal/mol and 3.14 ± 0.1 kcal/mol.
The matching figures for “SAGGMTIELTIVAETEEEAEKAAEELARKLAELYPDLKVKVTVEKVEVKDEETGKTYLVYKVRIEIEPSAGG [r13_545_TrROS_Hall]”: 4.47 ± 0.19 kcal/mol, 4.96 ± 0.11 kcal/mol and 4.95 ± 0.11 kcal/mol.
As to “SAGGMTILFEADSLEEARQAVEDLLRDLGIPAIAERITVEERTFRLPAGPGTRRFVLVTIDLRLEPPSAGGS [r16_587_TrMRF]”, the “folding stability dG unfold” value in series [1] worked out at 2.68 ± 0.031 kcal/mol; in series [2] it was 2.522 ± 0.021 kcal/mol; in series [3] it was 2.62 ± 0.034 kcal/mol.
The like results for “SAGGMTITIPPSVPDADVERIVEEAEATFPQPVTLTRDPGRGRWTLTFDGPEDERREAIEALAARLASAGGS [r16_227_JUSTAS]” were, in that order, 0.0735 ± 0.14 kcal/mol, 0.565 ± 0.19 kcal/mol and 0.434 ± 0.12 kcal/mol.
The like results for “SAGGMTITIPVTESGSLEEALALAERVAEEARAAGLEEVTITVTVYDPANGEVLYTKTRRVPVRPEASAGGS [r8_33_JUSTAS]” were, in that order, 2.03 ± 0.032 kcal/mol, 2.274 ± 0.0077 kcal/mol and 2.21 ± 0.031 kcal/mol.
The like results for “SAGGMTIVEKDGKLVLKITVTVPPGTTVEELKNALKELFGVEEVKVVKIEKNENGEITITVEAVFPKSAGGS [r16_234_TrROS_Hall]” were, in that order, 2.59 ± 0.12 kcal/mol, 3.31 ± 0.13 kcal/mol and 3.03 ± 0.11 kcal/mol.
In the case of “SAGGMTIVLPNGITLTFYPDRTVTATVDFPGRPLTLTLDAASLAEAVAAVERAAAEWAAPAPPVVDLSSAGG [r13_896_TrMRF]”, the “folding stability dG unfold” value came out at 2.56 ± 0.042 kcal/mol in series [1], 2.824 ± 0.013 kcal/mol in series [2] and 2.72 ± 0.042 kcal/mol in series [3].
Take “SAGGMTKTVTVTIEIDVPPGVTVDELIEKLKELAEKLGLTVKVTSVTVEEVDGKLVVTVEVEIEPPEPSAGG [r13_351_TrROS_Hall]”: the “folding stability dG unfold” value in series [1] is 2.58 ± 0.25 kcal/mol; in series [2], 2.6 ± 0.18 kcal/mol; in series [3], 2.5 ± 0.31 kcal/mol.
The like results for “SAGGMTLITIEHPDGEVIEFELPGATEEEAEAIAEEIAKRHDPGKVKVTFEKVPEKGVDPTKPVAVKSAGGS [r8_167_JUSTAS]” were, in that order, -0.128 ± 0.073 kcal/mol, 1.39 ± 0.038 kcal/mol and 0.917 ± 0.099 kcal/mol.
The like results for “SAGGMTLRIVLPEEEAEKLVEELKKIFPGAEIKVKKVEYNEETGEKLVVLEIKFKSKEEAEKAKKLLESAGG [r13_539_TrROS_Hall]” were, in that order, 3.54 ± 0.1 kcal/mol, 3.8 ± 0.12 kcal/mol and 3.73 ± 0.083 kcal/mol.
The matching figures for “SAGGMTLTLTGPEEVVDDLLERLREEFPDVTVEPTAVSYDPATGLVTVPVRVVTEDPAVVAAIRAALSSAGG [r13_539_JUSTAS]”: 4.08 ± 0.091 kcal/mol, 3.562 ± 0.03 kcal/mol and 3.79 ± 0.065 kcal/mol.
Regarding “SAGGMTLTLTIKVKTTTVEKDAATGKETVRTETRTLTVTIEAESEEEALAALKKLLEELGFEIVEVTSAGGS [r16_459_TrROS_Hall]”, the “folding stability dG unfold” value in series [1] was determined as 3.99 ± 0.27 kcal/mol; in series [2], 5.1 ± 0.22 kcal/mol; in series [3], 4.89 ± 0.28 kcal/mol.
The like results for “SAGGMTPAVTETTIELPASDPEAAIAALRAAGWELLARERGPDGSVRMVFAAPTRRVTVDFVGPAAASAGGS [r16_170_JUSTAS]” were, in that order, 1.06 ± 0.014 kcal/mol, 2.03 ± 0.039 kcal/mol and 1.71 ± 0.032 kcal/mol.
The matching figures for “SAGGMTPEELREKAKKLAEELAKKLKEKYPNVKVEVEVDEETKKVKIKVKNKKTGKTYEITINLEELLSAGG [r13_354_TrROS_Hall]”: 3.85 ± 0.47 kcal/mol, 3.94 ± 0.22 kcal/mol and 4.09 ± 0.42 kcal/mol.
The like results for “SAGGMTRVLELTVPVDVIGPEELKALLEALAEDAEVEFEIGPDGLLRVRVTVDVPPDPDAPPDLDGESAGGS [r16_535_TrMRF]” were, in that order, 1.82 ± 0.045 kcal/mol, 2.4 ± 0.099 kcal/mol and 2.33 ± 0.11 kcal/mol.
On to “SAGGMTSTLTVTLTVSPSTSPEEAAERAAEALEAAHPDRTVVIESITVTPATGKVVATIKVVGDTGASAGGS [r8_26_JUSTAS]”, for which the results for the “folding stability dG unfold” value in series [1], in series [2] and in series [3] were 1.53 ± 0.055 kcal/mol, 1.18 ± 0.029 kcal/mol and 1.39 ± 0.07 kcal/mol, respectively.
For “SAGGMTTTTTFDGPTDEAFDLPSGVKVEPEPATGGYRVELPPGREVEVTVERSTDPGTVTWTFTFKESAGGS [r16_122_JUSTAS]”, the “folding stability dG unfold” value in series [1] was found to be 0.3 ± 0.036 kcal/mol; in series [2] it was 0.531 ± 0.16 kcal/mol; in series [3], 0.544 ± 0.078 kcal/mol.
In the case of “SAGGMTTVTTTFTMSSEELKKFLEEKFGREVTKEEIIELIPKEKKIDVSESPQPNGTVKYTITITIEKSAGG [r13_869_JUSTAS]”, the “folding stability dG unfold” value in series [1] worked out at 1.99 ± 0.099 kcal/mol; in series [2], 2.61 ± 0.044 kcal/mol; in series [3], 2.44 ± 0.16 kcal/mol.
The matching figures for “SAGGMTVERVPGSGVYTLTFPDGSTETLEIPPEENAVVYAKEGAGTVTVKLAPPDDPEALAAAAALSSAGGS [r16_623_JUSTAS]”: -0.344 ± 0.083 kcal/mol, 0.357 ± 0.069 kcal/mol and 0.15 ± 0.066 kcal/mol.
The matching figures for “SAGGMTVSVTADGSSYTATVKLPDGTTLTVPFTSLEELATQVREEYEKAFPDVPLERLVLEDISPTAPSAGG [r13_887_JUSTAS]”: 1.77 ± 0.031 kcal/mol, 3.344 ± 0.021 kcal/mol and 2.93 ± 0.036 kcal/mol.
The matching figures for “SAGGMTVTVLEVTEEEVIIDDKKEKIITITIKLPDGTEITVTLSTSEIEAKGLTKEEAVEYIAKKLLSAGGS [r16_625_JUSTAS]”: 3.55 ± 0.085 kcal/mol, 4.16 ± 0.058 kcal/mol and 3.99 ± 0.078 kcal/mol.
For the sequence “SAGGMVEITATVGSPDPSLTDEEIAERILKELGLDPEIVEVTFLERRLVPDAAGRVRVVVEMKFLVPEKSAG [r5_528_JUSTAS]”, the “folding stability dG unfold” value in series [1] was found to be 4.77 ± 0.21 kcal/mol; in series [2], 4.26 ± 0.16 kcal/mol; in series [3] it was 4.73 ± 0.19 kcal/mol.
The like results for “SAGGMVEVTYDPETGTLTILLPSPSGTLGPEAVEAAARLIRELYPEAEVEVEPLPDNTVRLRVRFPGGSAGG [r13_291_TrMRF]” were, in that order, 4.22 ± 0.093 kcal/mol, 5.38 ± 0.23 kcal/mol and 4.96 ± 0.14 kcal/mol.
Take “SAGGMVILVKDKDGRWRELSEEEIRRLAEELERRYNLEVEEVELEDGERYYLIRIEPPEVPGLSEEELSAGG [r13_790_TrROS_Hall]”: the “folding stability dG unfold” value in series [1] came to 1.97 ± 0.059 kcal/mol; in series [2], 2.15 ± 0.13 kcal/mol; in series [3] it was 2.23 ± 0.21 kcal/mol.
For the sequence “SAGGMVIRVRFRETNETVTLSPEVLEALKRGDPDALRALPEEQREALARIERVEIRPAPPVRVLPEEESAGG [r13_233_TrROS_Hall]”, the “folding stability dG unfold” value was 2.63 ± 0.14 kcal/mol in series [1], 1.81 ± 0.14 kcal/mol in series [2] and 2.29 ± 0.43 kcal/mol in series [3].
Turning to “SAGGMVITIPTTTSSIEEAIEAVKKKVEEEGYKVTEIKDIKVSTDPKTGKINVTATVIVEKLPKEEKSAGGS [r16_155_JUSTAS]”, the “folding stability dG unfold” value in series [1] worked out at 0.99 ± 0.057 kcal/mol; in series [2], 2.85 ± 0.22 kcal/mol; in series [3] it was 2.55 ± 0.3 kcal/mol.
Take “SAGGMVIVFPAPKDISPDELRELIEAEVGPLAEELGLTEASIPIAKVEELPEGSRRVVAVIELRFDGSAGGS [r8_184_TrMRF]”: the figures for the “folding stability dG unfold” value in series [1], in series [2] and in series [3] were 0.977 ± 0.027 kcal/mol, 0.332 ± 0.048 kcal/mol and 0.718 ± 0.056 kcal/mol, respectively.
In the case of “SAGGMVIVVKTKEEAKKALEELLKKLFPDLKIKKIEIKEVEVEVKKKDGKKVKKKKFIVVKIEIEKESAGGS [r16_267_TrROS_Hall]”, the figures for the “folding stability dG unfold” value in series [1], in series [2] and in series [3] were 2.61 ± 0.1 kcal/mol, 3.38 ± 0.13 kcal/mol and 3.05 ± 0.13 kcal/mol, respectively.
The like results for “SAGGMVKLTVYETPDSYTVTIDLGDKPYTIPVPPGLSPEEAAARAVEELQKAFPDEEVVVESVEYVARSAGG [r13_884_JUSTAS]” were, in that order, 1.1 ± 0.079 kcal/mol, 1.24 ± 0.086 kcal/mol and 1.19 ± 0.068 kcal/mol.
The matching figures for “SAGGMVNLRLYNPATGEPIDFPVPKDVVEEMLKNGDLAALEALFPGFPIAKVEVDEGEEVPAVPPDEASAGG [r13_629_TrMRF]”: 0.776 ± 0.032 kcal/mol, 0.0323 ± 0.15 kcal/mol and 0.462 ± 0.14 kcal/mol.
The like results for “SAGGMVQISVTEIDPETGLITIEMKFPKGVDDPAKIAAAKAEAEAFAQELEKKLGLPVKVTFTPLPESAGGS [r16_304_JUSTAS]” were, in that order, 1.95 ± 0.037 kcal/mol, 1.9 ± 0.039 kcal/mol and 1.93 ± 0.043 kcal/mol.
With “SAGGMVTITLPEVNVEDPEVAEARMEEIAARLRAAGVTVTSASYDPEKGLATITVSAGGLSAAEVLASAGGS [r8_344_JUSTAS]”, the “folding stability dG unfold” value is 2.48 ± 0.042 kcal/mol in series [1], 2.455 ± 0.015 kcal/mol in series [2] and 2.47 ± 0.037 kcal/mol in series [3].
Turning to “SAGGMVTITTEKMTEEEAEELKKKLPPNTVLLPNPANDTIVPILVPPDPAVLQAVKDALEKELAEAKSAGGS [r16_311_JUSTAS]”, the figures for the “folding stability dG unfold” value in series [1], in series [2] and in series [3] were 1.49 ± 0.13 kcal/mol, 0.662 ± 0.24 kcal/mol and 1.18 ± 0.15 kcal/mol, respectively.
The like results for “SAGGMVTSTVSVDPSVPKTTTTETFSDGTRVVTTTTELPSGLTVTTTTVTVPPDGSTTATSTTTTIAPSAGG [r13_230_JUSTAS]” were, in that order, 1.62 ± 0.064 kcal/mol, 0.958 ± 0.044 kcal/mol and 1.27 ± 0.11 kcal/mol.

The values above are taken from the supplement of paper PMC12764529.
